{"source": "patent US20240094221A1", "about": "“METHOD FOR PREDICTING THE FERTILITY POTENTIAL OF A FEMALE SUBJECT” (Rigshospitalet, priority 2020, published 2024)", "molecules": {"B1": {"name": "PTH: Parathyroidea hormone; well-characterized RANKL inducer (protein, UniProt P01270 32-115, looked up)", "Parathyroid hormone": "SVSEIQLMHNLGKHLNSMERVEWLRKKLQDVHNFVALGAPLAPRDAGSQRPRKKEDNVLVESHEKSLGEADKADVNVLTKAKSQ", "modifications": "Parathyroid hormone", "notes": "Parathyroidea hormone; well-characterized RANKL inducer"}}, "system": "female C57BL/6 mice", "assay": "In vivo mice fertility study with RANKL inducer PTH", "conditions": "vs vehicle", "source_text": "Twelve (12) female C57BL/6 mice will be allocated to two treatment groups (n=6, n=6) and administered with test article according to table 1. On study day 7, all females of each treatment group+3 male C57BL/6 mice will be allocated to the fertility study. In the fertility study pairs of 2 females will be housed with 1 male for a period of 5 days. During the 5 days all females are observed daily for vaginal plugs at least once per day. Administration of test articles will continue according to table 1 during the fertility study (days 7 to 11). Presence of vaginal plug, apparent pregnancy, and litter size will be recorded for each female. Females and litter will be terminated at the end of the fertility study and the weight of the pups will be determined.\nAdministration of test article i.p. (group 1) or vehicle i.p. (group 2) will be conducted 2 times a week for a period of 12 days. • Gr.1: 6 mice, i.p. dosing 2 times weekly for 12 days • Gr.2: 6 mice, i.p. dosing 2 times weekly for 12 days\nOne blood sample will be harvested on study day 12 from all female mice in the study. The blood samples will be drawn by sublingual vein puncture.\nTermination: • female mice from the fertility study, will be terminated on nominal study day 12. Twelwe (12) mice will be euthanized after giving birth to litters", "note": "“Also recorded” adds a separate entry of the source."}
{"molecule": "B1", "values": [{"measurement": "pregnancy rate", "setting": "PTH 5 μg/kg i.p., females paired with WT males, FIG. 14A", "result": "increased; also recorded: doubled"}, {"measurement": "number of pups", "setting": "PTH 5 μg/kg i.p., females paired with WT males, FIG. 14B", "result": "increased"}, {"measurement": "number of pups per female", "setting": "PTH 5 μg/kg i.p., females paired with WT males, FIG. 14C", "result": "increased"}, {"measurement": "ovary weight", "setting": "short-term PTH 5 μg/kg i.p., healthy female mice, p<0.05, data not shown", "result": "small but significant effect"}]}
